Changes are numbered by the printed parent chain.
T1: native IHFNTHI (integration host factor of nontypeable Haemophilus influenzae) (nontypeable Haemophilus influenzae …, UniProt P43723 1-96; P43724 1-94)
T1 construct: also called NTHI IHF
T1 sequence 1: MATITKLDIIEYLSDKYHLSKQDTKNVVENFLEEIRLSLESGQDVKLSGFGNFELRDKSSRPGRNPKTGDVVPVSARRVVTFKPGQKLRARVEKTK
T1 sequence 2: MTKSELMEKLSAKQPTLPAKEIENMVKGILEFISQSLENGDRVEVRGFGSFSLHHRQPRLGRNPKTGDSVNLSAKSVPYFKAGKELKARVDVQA

T2: tip-chimeric peptide IhfA5-mIhfB4NTHI (nontypeable Haemophilus influenzae …)
T2 construct: also called IHF(NTHI) tip chimeric peptide; IHFNTHI tip chimeric peptide
T2 peptide: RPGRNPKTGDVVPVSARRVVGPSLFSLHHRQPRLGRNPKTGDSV

B1: humanized anti-tip monoclonal antibody, heavy chain SEQ ID NO: 1 and light chain SEQ ID NO: 9 (antibody, V domains shown)
VH: EVKLVESGGGLVQPGGSLRLSCAASGFTFRTYAMSWVRQAPGKGLEWVATIGSDRRHTYYPDSVKGRFTISRDNAKNTLYLQMNSLRAEDTAVYYCVGPYDGYYGEFDYWGQGTLVTVSS
VL: DVVMTQSPDSLAVSLGERATINCKSSQSLLDSDGKTFLNWLQQKPGQPPKRLIYLVSKLDSGVPDRFSGSGSGTDFTLTISSLQAEDVAVYYCWQGTHFPYTFGQGTKLEIKR
notes: also called H10210 (1F8.F1 Humanized HC1) + L10212 (1F8.F1 Humanized LC3)
B2: humanized anti-tip monoclonal antibody, heavy chain SEQ ID NO: 2 and light chain SEQ ID NO: 9 (antibody, V domains shown)
VH: B1 VH with K3Q, A75S
VL: B1 VL
notes: also called H10211 (1F8.F1 Humanized HC2) + L10212 (1F8.F1 Humanized LC3)
B3: humanized anti-tip monoclonal antibody, heavy chain SEQ ID NO: 3 and light chain SEQ ID NO: 7 (antibody, V domains shown)
VH: EVKLVQSGAEVKKPGASVKVSCKASGFTFRTYAMSWVRQAPGQRLEWVATIGSDRRHTYYPDKFQGRVTITRDNAKNTLYMELSSLRSEDTAVYYCVGPYDGYYGEFDYWGQGTLVTVSS
VL: DVVMTQSPLSLPVTLGQPASISCRSSQSLLDSDGKTFLNWLQQRPGQSPRRLIYLVSKLDSGVPDRFSGSGSGTDFTLKISRVEAEDVGVYYCWQGTHFPYTFGQGTKLEIKR
notes: also called H10212 (1F8.F1 Humanized HC3) + L10210 (1F8.F1 Humanized LC1)
B4: humanized anti-tip monoclonal antibody, heavy chain SEQ ID NO: 1 and light chain SEQ ID NO: 7 (antibody, V domains shown)
VH: B1 VH
VL: B3 VL
notes: also called HuTipMab; TP-21949
B5: humanized anti-tip monoclonal antibody, heavy chain SEQ ID NO: 3 and light chain SEQ ID NO: 9 (antibody, V domains shown)
VH: B3 VH
VL: B1 VL
notes: also called H10212 (1F8.F1 Humanized HC3) + L10212 (1F8.F1 Humanized LC3)
B6: humanized anti-tip monoclonal antibody, heavy chain SEQ ID NO: 2 and light chain SEQ ID NO: 7 (antibody, V domains shown)
VH: B1 VH with K3Q, A75S
VL: B3 VL
notes: also called H10211 (1F8.F1 Humanized HC2) + L10210 (1F8.F1 Humanized LC1)
B7: humanized anti-tip monoclonal antibody, heavy chain SEQ ID NO: 1 and light chain SEQ ID NO: 8 (antibody, V domains shown)
VH: B1 VH
VL: B3 VL with L59R
notes: also called H10210 (1F8.F1 Humanized HC1) + L10211 (1F8.F1 Humanized LC2)

Legend:
[1] = molecular target: T1, native IHFNTHI (integration host factor …); test: SPR Biacore 3000, IHFNTHI immobilized, HuMab as analyte
[2] = molecular target: T2, tip-chimeric peptide IhfA5-mIhfB4NTHI; test: SPR Biacore 3000, peptide immobilized, HuMab as analyte
[3] = molecular target: T1, native IHFNTHI (integration host factor …); test: SPR Biacore 3000, HuMab immobilized, IHFNTHI as analyte
[4] = molecular target: T2, tip-chimeric peptide IhfA5-mIhfB4NTHI; test: SPR Biacore 3000, HuMab immobilized, peptide as analyte
[5] = molecular target: T2, tip-chimeric peptide IhfA5-mIhfB4NTHI; test: direct ELISA #2, peptide coated (curves reaching equilibrium)
[6] = molecular target: T2, tip-chimeric peptide IhfA5-mIhfB4NTHI; test: direct ELISA #1, peptide coated (curves not reaching equilibrium)

Binder | Kd [1] | koff [1] | kon [1] | Kd [2] | koff [2] | kon [2] | Kd [3] | koff [3] | kon [3] | Kd [4] | koff [4] | kon [4] | EC50 [5] | EC50 [6]
B1 | 24 nM | 0.16 s⁻¹ | 6.5e+06 M⁻¹ s⁻¹ | 0.3 nM | 1.3e-05 s⁻¹ | 40000 M⁻¹ s⁻¹ | 0.6 nM | 0.00037 s⁻¹ | 630000 M⁻¹ s⁻¹ | 152 nM | 0.00038 s⁻¹ | 2500 M⁻¹ s⁻¹ | 0.055 µg/mL | 0.032 µg/mL
B2 | 125 nM | 0.0017 s⁻¹ | – | 4 nM | 1.2e-05 s⁻¹ | 3700 M⁻¹ s⁻¹ | 62 nM | 0.00045 s⁻¹ | 7200 M⁻¹ s⁻¹ | 23 nM | 7.4e-05 s⁻¹ | 3500 M⁻¹ s⁻¹ | 0.0453 µg/mL | 0.027 µg/mL
B3 | 825 nM | 0.00011 s⁻¹ | 140 M⁻¹ s⁻¹ | 8 nM | 0.0004 s⁻¹ | 48000 M⁻¹ s⁻¹ | 6 nM | 0.0004 s⁻¹ | 66000 M⁻¹ s⁻¹ | 29 nM | 0.0016 s⁻¹ | 54000 M⁻¹ s⁻¹ | 0.0858 µg/mL | 0.075 µg/mL
B4 | 17 nM | 9e-05 s⁻¹ | 5400 M⁻¹ s⁻¹ | 7 nM | 0.00022 s⁻¹ | 31000 M⁻¹ s⁻¹ | 10 nM | 1.4e-05 s⁻¹ | 1400 M⁻¹ s⁻¹ | 76 nM | 0.00034 s⁻¹ | 4500 M⁻¹ s⁻¹ | 0.0704 µg/mL | 0.06 µg/mL
B5 | 3400 nM | 0.016 s⁻¹ | 4600 M⁻¹ s⁻¹ | 3 nM | 0.00021 s⁻¹ | 79000 M⁻¹ s⁻¹ | 1600 nM | 0.0027 s⁻¹ | 1700 M⁻¹ s⁻¹ | 200 nM | 0.0019 s⁻¹ | 9500 M⁻¹ s⁻¹ | 0.111 µg/mL | 0.035 µg/mL
B6 | 4400 nM | 0.0014 s⁻¹ | – | 144 nM | 0.0026 s⁻¹ | 18000 M⁻¹ s⁻¹ | 0.6 nM | 0.0004 s⁻¹ | 640000 M⁻¹ s⁻¹ | 527 nM | 0.00015 s⁻¹ | 280 M⁻¹ s⁻¹ | 0.062 µg/mL | 0.049 µg/mL
B7 | 40 nM | 0.006 s⁻¹ | 150000 M⁻¹ s⁻¹ | 0.3 nM | 1.1e-05 s⁻¹ | 42000 M⁻¹ s⁻¹ | 0.2 nM | 0.00032 s⁻¹ | 1.4e+06 M⁻¹ s⁻¹ | 21 nM | 0.00037 s⁻¹ | 17000 M⁻¹ s⁻¹ | 0.0644 µg/mL | 0.066 µg/mL

From patent US20210206841A1 (RESEARCH INSTITUTE AT NATIONWIDE CHILDREN S HOSPITAL, published 2021)
